Results from paper PMC2568864, “Chemical Dissection of the Link between Streptozotocin, O-GlcNAc, and Pancreatic Cell Death” (Chemistry & Biology, 2008).

Substrate: CC(=O)N[C@H]1[C@H](Oc2ccc3c(C)cc(=O)oc3c2)O[C@H](CO)[C@@H](O)[C@@H]1O
Assay: purified protein

B1: human O-GlcNAcase (hOGA) (Homo sapiens) (protein)
chain: AAGGARRFLCGVVEGFYGRPWVMEQRKELFRRLQKWELNTYLYAPKDDYKHRMFWREMYSVEEAEQLMTLISAAREYEIEFIYAISPGLDITFSNPKEVSTLKRKLDQVSQFGCRSFALLFDDIDHNMCAADKEVFSSFAHAQVSITNEIYQYLGEPETFLFCPTEYCGTFCYPNVSQSPYLRTVGEKLLPGIEVLWTGPKVVSKEIPVESIEEVSKIIKRAPVIWDNIHANDYDQKRLFLGPYKGRSTELIPRLKGVLTNPNCEFEANYVAIHTLATWYKSNMNGVRKDVVMTDSEDSTVSIQIKLENEGSDEDIETDVLYSPQMALKLALTEWLQEFGVPHQYSSRQVAHSGAKASVVDGTPLVAAPSLNATTVVTTVYQEPIMSQGAALSGEPTTLTKEEEKKQPDEEPMDMVVEKQEETDHKNDNQILSEIVEAKMAEELKPMDTDKESIAESKSPEMSMQEDCISDIAPMQTDEQTNKEQFVPGPNEKPLYTAEPVTLEDLQLLADLFYLPYEHGPKGAQMLREFQWLRANSSVVSVNCKGKDSEKIEEWRSRAAKFEEMCGLVMGMFTRLSNCANRTILYDMYSYVWDIKSIMSMVKSFVQWLGCRSHSSAQFLIGDQEPWAFRGGLAGEFQRLLPIDGANDLFFQPPPLTPTSKVYTIRPYFPKDEASVYKICREMYDDGVGLPFQSQPDLIGDKLVGGLLSLSLDYCFVLEDEDGICGYALGTVDVTPFIKKCKISWIPFMQEKYTKPNGDKELSEAEKIMLSFHEEQEVLPETFLANFPSLIKMDIHKKVTDPSVAKSMMACLLSSLKANGSRGAFCEVRPDDKRILEFYSKLGCFEIAKMEGFPKDVVILGRSL
  Km: 80 ± 6 µM
